Experimental data published in PMC5972581 (2018).

B1: Trx-OsMORF8-His (protein)
chain: MASASRFLLLSRLPAAAASSTSRLLRPLSAAGSLLPAALAPSAPRAAAAAARCFATQPATSSLRDSSPNWSNRPPKETILLDGCDFEHWLVVVEPPPGDPSNPEPTRDEIIDGYIKTLAQVVGSEEEARHKIYSVSTRHYFAFGALVSEELSYKLKELPKVRWVLPDSYLDVRNKDYGGEPFINGEAVPYDPKYHEEWVRNNARANERSRRNDRPRNFDRSRNFERRRENMQNFQNRDVPPGQGFNSPPPPGQGPVPPRDAPPMHHAQGNVPPPPPPNAGPPNYQPHAPNPQGYTNYQQGGAPGYQGGPPGYQGSNQGYQGPPPPPPSAYQGNNPGYQGGGPGYQGGNPPPYQGGNPGYAPGYHGQGGNPSYQQGGDNYNAGVPAYERDGQGRNYQ
B2: Trx-OsMORF9-His (protein)
chain: MASFPTTAAAAAAQAFAFALAPKPSSSAAAPSALFPRTAAAAAFPTLAVRGSGKARQPVVAAAAGAGTGSEQRETILLPGCDYNHWLIVMEFPKDPAPTREQMIDTYLNTLATVLGSMEEAKKNMYAFSTTTYTGFQCTVDEETSEKFKGLPGVLWVLPDSYIDVKNKDYGGDKYINGEIIPCTYPTYQPKERRTSKYESRRYERRRDGPPASRRPRPQTAQPESASSS

Target: T1, GST-OsPGL1^46-604 (rice (Oryza sativa), UniProt B7EDM4)
T1 chain: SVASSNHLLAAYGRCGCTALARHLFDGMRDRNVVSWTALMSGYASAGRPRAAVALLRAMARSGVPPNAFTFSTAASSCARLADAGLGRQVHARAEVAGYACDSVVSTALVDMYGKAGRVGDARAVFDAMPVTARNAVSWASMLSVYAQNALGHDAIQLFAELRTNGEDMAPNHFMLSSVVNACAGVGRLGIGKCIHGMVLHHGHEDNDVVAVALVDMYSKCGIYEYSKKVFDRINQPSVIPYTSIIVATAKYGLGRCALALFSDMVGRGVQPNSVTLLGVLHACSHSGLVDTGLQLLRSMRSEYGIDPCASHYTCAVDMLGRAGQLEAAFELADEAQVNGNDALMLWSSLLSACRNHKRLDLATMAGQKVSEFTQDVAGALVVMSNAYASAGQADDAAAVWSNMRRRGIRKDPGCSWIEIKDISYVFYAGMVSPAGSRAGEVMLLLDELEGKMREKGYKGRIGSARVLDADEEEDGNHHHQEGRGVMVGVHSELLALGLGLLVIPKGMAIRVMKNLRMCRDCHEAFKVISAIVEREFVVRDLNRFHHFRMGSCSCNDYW
Experiment: GST pull-down

Binder | binding result
B1 | binds
B2 | binds
